The record followed here is the supplement of paper PMC11316812.

± gives the standard deviation of the averaged measurements.

Data set [1] has as its system MCF7. The experiment in a line: percentage of EdU-negative (G0-arrested) nuclei per well, 72 h; higher = more G0 arrest. The conditions noted are these: reference: sequence is the full UniProt precursor, the tested protein was the secreted form or ectodomain.
The test system of data set [2] is hTERT-HMEC. The description is as above. The conditions noted are these: reference: sequence is the full UniProt precursor, the tested protein was the secreted form or ectodomain.
The mark [3] stands for this setting: protein concentration 0.0211429 µM.
[4] abbreviates: protein concentration 0.211429 µM.
Setting [5] is: protein concentration 0.0225 µM.
Where [6] appears, read: protein concentration 0.01025 µM.
Setting [7] is: protein concentration 0.1025 µM.
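Also: secreted proteins added to cultured cells, EdU pulse at the end, nuclei found by Hoechst imaging, EdU status from nuclear versus surrounding ring intensity ratio, PBS as neutral control.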

Take “MMDIYVCLKRPSWMVDNKRMRTASNFQWLLSTFILLYLMNQVNSQKKGAPHDLKCVTNNLQVWNCSWKAPSGTGRGTDYEVCIENRSRSCYQLEKTSIKIPALSHGDYEITINSLHDFGSSTSKFTLNEQNVSLIPDTPEILNLSADFSTSTLYLKWNDRGSVFPHRSNVIWEIKVLRKESMELVKLVTHNTTLNGKDTLHHWSWASDMPLECAIHFVEIRCYIDNLHFSGLEEWSDWSPVKNISWIPDSQTKVFPQDKVILVGSDITFCCVSQEKVLSALIGHTNCPLIHLDGENVAIKIRNISVSASSGTNVVFTTEDNIFGTVIFAGYPPDTPQQLNCETHDLKEIICSWNPGRVTALVGPRATSYTLVESFSGKYVRLKRAEAPTNESYQLLFQMLPNQEIYNFTLNAHNPLGRSQSTILVNITEKVYPHTPTSFKVKDINSTAVKLSWHLPGNFAKINFLCEIEIKKSNSVQEQRNVTIKGVENSSYLVALDKLNPYTLYTFRIRCSTETFWKWSKWSNKKQHLTTEASPSKGPDTWREWSSDGKNLIIYWKPLPINEANGKILSYNVSCSSDEETQSLSEIPDPQHKAEIRLDKNDYIISVVAKNSVGSSPPSKIASMEIPNDDLKIEQVVGMGKGILLTWHYDPNMTCDYVIKWCNSSRSEPCLMDWRKVPSNSTETVIESDEFRPGIRYNFFLYGCRNQGYQLLRSMIGYIEELAPIVAPNFTVEDTSADSILVKWEDIPVEELRGFLRGYLFYFGKGERDTSKMRVLESGRSDIKVKNITDISQKTLRIADLQGKTSYHLVLRAYTDGGVGPEKSMYVVTKENSVGLIIAILIPVAVAVIVGVVTSILCYRKREWIKETFYPDIPNPENCKALQFQKSVCEGSSALKTLEMNPCTPNNVEVLETRSAFPKIEDTEIISPVAERPEDRSDAEPENHVVVSYCPPIIEEEIPNPAADEAGGTAQVIYIDVQSMYQPQAKPEEEQENDPVGGAGYKPQMHLPINSTVEDIAAEEDLDKTAGYRPQANVNTWNLVSPDSPRSIDSNSEIVSFGSPCSINSRQFLIPPKDEDSPKSNGGGWSFTNFFQNKPND”: the “percentage of EdU-negative” value is 24.2 ± 2% in data set [1] (setting [3]), 26.8 ± 0.8% in data set [1] (setting [4]), 4.99 ± 0.47% in data set [2] (setting [3]) and 7.62 ± 0.7% in data set [2] (setting [4]).

Take “MMGLFPRTTGALAIFVVVILVHGELRIETKGQYDEEEMTMQQAKRRQKREWVKFAKPCREGEDNSKRNPIAKITSDYQATQKITYRISGVGIDQPPFGIFVVDKNTGDINITAIVDREETPSFLITCRALNAQGLDVEKPLILTVKILDINDNPPVFSQQIFMGEIEENSASNSLVMILNATDADEPNHLNSKIAFKIVSQEPAGTPMFLLSRNTGEVRTLTNSLDREQASSYRLVVSGADKDGEGLSTQCECNIKVKDVNDNFPMFRDSQYSARIEENILSSELLRFQVTDLDEEYTDNWLAVYFFTSGNEGNWFEIQTDPRTNEGILKVVKALDYEQLQSVKLSIAVKNKAEFHQSVISRYRVQSTPVTIQVINVREGIAFRPASKTFTVQKGISSKKLVDYILGTYQAIDEDTNKAASNVKYVMGRNDGGYLMIDSKTAEIKFVKNMNRDSTFIVNKTITAEVLAIDEYTGKTSTGTVYVRVPDFNDNCPTAVLEKDAVCSSSPSVVVSARTLNNRYTGPYTFALEDQPVKLPAVWSITTLNATSALLRAQEQIPPGVYHISLVLTDSQNNRCEMPRSLTLEVCQCDNRGICGTSYPTTSPGTRYGRPHSGRLGPAAIGLLLLGLLLLLLAPLLLLTCDCGAGSTGGVTGGFIPVPDGSEGTIHQWGIEGAHPEDKEITNICVPPVTANGADFMESSEVCTNTYARGTAVEGTSGMEMTTKLGAATESGGAAGFATGTVSGAASGFGAATGVGICSSGQSGTMRTRHSTGGTNKDYADGAISMNFLDSYFSQKAFACAEEDDGQEANDCLLIYDNEGADATGSPVGSVGCCSFIADDLDDSFLDSLGPKFKKLAEISLGVDGEGKEVQPPSKDSGYGIESCGHPIEVQQTGFVKCQTLSGSQGASALSTSGSVQPAVSIPDPLQHGNYLVTETYSASGSLVQPSTAGFDPLLTQNVIVTERVICPISSVPGNLAGPTQLRGSHTMLCTEDPCSRLI”: the “percentage of EdU-negative” value turned out to be 27.7 ± 0.58% in data set [1] (setting [5]), 33.34 ± 0.16% in data set [1] (protein concentration 0.225 µM), 4.88 ± 0.17% in data set [2] (setting [5]) and 13.7 ± 2.7% in data set [2] (protein concentration 0.225 µM).

Take “MMLHSALGLCLLLVTVSSNLAIAIKKEKRPPQTLSRGWGDDITWVQTYEEGLFYAQKSKKPLMVIHHLEDCQYSQALKKVFAQNEEIQEMAQNKFIMLNLMHETTDKNLSPDGQYVPRIMFVDPSLTVRADIAGRYSNRLYTYEPRDLPLLIENMKKALRLIQSEL [Q8TD06]”: the “percentage of EdU-negative” value in data set [1] (setting [5]) stood at 26.1 ± 2.8%; in data set [1] (protein concentration 0.225 µM), 24.6 ± 0.5%; in data set [2] (setting [5]), 5.91 ± 1.9%; in data set [2] (protein concentration 0.225 µM), 6.43 ± 1.1%.

With “MMLRLLSSLLLVAVASGYGPPSSHSSSRVVHGEDAVPYSWPWQVSLQYEKSGSFYHTCGGSLIAPDWVVTAGHCISRDLTYQVVLGEYNLAVKEGPEQVIPINSEELFVHPLWNRSCVACGNDIALIKLSRSAQLGDAVQLASLPPAGDILPNKTPCYITGWGRLYTNGPLPDKLQQARLPVVDYKHCSRWNWWGSTVKKTMVCAGGYIRSGCNGDSGGPLNCPTEDGGWQVHGVTSFVSAFGCNFIWKPTVFTRVSAFIDWIEETIASH”, the “percentage of EdU-negative” value in data set [1] (setting [6]) was 25.2 ± 3%; in data set [1] (setting [7]), 24.7 ± 1.6%; in data set [2] (setting [6]), 5.71 ± 1.5%; in data set [2] (setting [7]), 5.66 ± 0.78%.

In the case of “MMLRLLSSLLLVAVASGYGPPSSRPSSRVVNGEDAVPYSWPWQVSLQYEKSGSFYHTCGGSLIAPDWVVTAGHCISSSRTYQVVLGEYDRAVKEGPEQVIPINSGDLFVHPLWNRSCVACGNDIALIKLSRSAQLGDAVQLASLPPAGDILPNETPCYITGWGRLYTNGPLPDKLQEALLPVVDYEHCSRWNWWGSSVKKTMVCAGGDIRSGCNGDSGGPLNCPTEDGGWQVHGVTSFVSAFGCNTRRKPTVFTRVSAFIDWIEETIASH”, the “percentage of EdU-negative” value stood at 25.2 ± 2.1% in data set [1] (protein concentration 0.022 µM), 29.66 ± 0.19% in data set [1] (protein concentration 0.22 µM), 5.18 ± 0.89% in data set [2] (protein concentration 0.022 µM) and 8.27 ± 2% in data set [2] (protein concentration 0.22 µM).

As for “MMLRVLVGAVLPAMLLAAPPPINKLALFPDKSAWCEAKNITQIVGHSGCEAKSIQNRACLGQCFSYSVPNTFPQSTESLVHCDSCMPAQSMWEIVTLECPGHEEVPRVDKLVEKILHCSCQACGKEPSHEGLSVYVQGEDGPGSQPGTHPHPHPHPHPGGQTPEPEDPPGAPHTEEEGAED”, the “percentage of EdU-negative” value in data set [1] (setting [5]) came out at 25.6 ± 1.4%; in data set [1] (protein concentration 0.225 µM), 24.7 ± 0.79%; in data set [2] (setting [5]), 5.79 ± 0.84%; in data set [2] (protein concentration 0.225 µM) it was 5.88 ± 0.42%.
